{
  "source": "the RNAGym collection of RNA variant scans (doi:10.1073/pnas.2313332121)",
  "parents": {"B1": {"name": "TPR t1 (parent)", "chain": "GACCAAUCUGCCCUCAGAGCUCGAGAACAUCUUCGGAUGCAGAGGAGGCAGGCUUCGGUGGCGCGAUAGCGCCAACGUCCUCAACCUCCAAUGCAUCCCACCACAUGAUGAUGCCUGAAGAGCCUUGGUUUUUUG"}},
  "data": [
    {"variants_of": "B1", "test": "polymerase ribozyme fitness, log enrichment relative to wild type (log ratio); higher = more active; in vitro selection for triplet polymerase activity", "outline": "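Genotype fitness is the logarithm of its enrichment divided by wild-type enrichment, using inverse-variance-weighted averages of replicates. That logarithm is base 2. Enrichment was measured by Illumina sequencing of input and output libraries from one triplicate in vitro selection round, with frozen incubation at −7 °C, on PCR-built, transcribed mutant libraries of each subunit of a heterodimeric triplet polymerase ribozyme, retaining genotypes with ≥10 input reads and ≥1 read per output.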", "values": [
      {"variant": "C89U G127C", "polymerase ribozyme fitness (log ratio)": -1.79},
      {"variant": "U96A G110A", "polymerase ribozyme fitness (log ratio)": -2.45},
      {"variant": "C94A A121U", "polymerase ribozyme fitness (log ratio)": 1.37},
      {"variant": "A91U C115U U130A", "polymerase ribozyme fitness (log ratio)": -2.33},
      {"variant": "G93U U96G U106A G127C", "polymerase ribozyme fitness (log ratio)": -3.43},
      {"variant": "C88U A90G C99U", "polymerase ribozyme fitness (log ratio)": -2.84},
      {"variant": "C89G C97G", "polymerase ribozyme fitness (log ratio)": -6.08},
      {"variant": "U92A C115G C123G", "polymerase ribozyme fitness (log ratio)": -5.89},
      {"variant": "A91U C104U", "polymerase ribozyme fitness (log ratio)": -1.47},
      {"variant": "A91U C104A", "polymerase ribozyme fitness (log ratio)": -4.59},
      {"variant": "C89A C123A", "polymerase ribozyme fitness (log ratio)": -1.82},
      {"variant": "C88U G107A", "polymerase ribozyme fitness (log ratio)": -6.88},
      {"variant": "U96A C102A", "polymerase ribozyme fitness (log ratio)": -3.43},
      {"variant": "G93C A100C U130A", "polymerase ribozyme fitness (log ratio)": -2.66},
      {"variant": "C89A U96A C115A", "polymerase ribozyme fitness (log ratio)": -2.16},
      {"variant": "A95U C102U U125G", "polymerase ribozyme fitness (log ratio)": -4.42},
      {"variant": "G93A C124A", "polymerase ribozyme fitness (log ratio)": 0.841},
      {"variant": "U96A G120U G128U", "polymerase ribozyme fitness (log ratio)": -1.74},
      {"variant": "G93U U109C", "polymerase ribozyme fitness (log ratio)": -5.62},
      {"variant": "G93U U112G G120C C123U", "polymerase ribozyme fitness (log ratio)": -2.5},
      {"variant": "G93U A111G G122A", "polymerase ribozyme fitness (log ratio)": -1.2},
      {"variant": "G93A C101U C123U", "polymerase ribozyme fitness (log ratio)": 0.532},
      {"variant": "A95C U131A", "polymerase ribozyme fitness (log ratio)": -0.642},
      {"variant": "C89G G113A G127U", "polymerase ribozyme fitness (log ratio)": -4.45},
      {"variant": "A90C C98U", "polymerase ribozyme fitness (log ratio)": -2.83},
      {"variant": "A90G U112G U116C", "polymerase ribozyme fitness (log ratio)": -0.0889},
      {"variant": "A95U C114G", "polymerase ribozyme fitness (log ratio)": -2.97},
      {"variant": "G93A U112C", "polymerase ribozyme fitness (log ratio)": 0.676},
      {"variant": "C88U U116C", "polymerase ribozyme fitness (log ratio)": 0.189},
      {"variant": "C88U U116A", "polymerase ribozyme fitness (log ratio)": -3.45},
      {"variant": "A95C U125A U126G", "polymerase ribozyme fitness (log ratio)": -1.74},
      {"variant": "A91C G113U", "polymerase ribozyme fitness (log ratio)": -3.8},
      {"variant": "C94A U132A", "polymerase ribozyme fitness (log ratio)": -0.269},
      {"variant": "U92C G128C U130A", "polymerase ribozyme fitness (log ratio)": -3.52},
      {"variant": "G93C U132C", "polymerase ribozyme fitness (log ratio)": -1.62},
      {"variant": "C89U C104U", "polymerase ribozyme fitness (log ratio)": 0.00386},
      {"variant": "C89U A95U C115U", "polymerase ribozyme fitness (log ratio)": -2.59},
      {"variant": "U92G A118C", "polymerase ribozyme fitness (log ratio)": -4},
      {"variant": "A95U C102U C104A G110C G128U", "polymerase ribozyme fitness (log ratio)": -5.5},
      {"variant": "C88U C89A", "polymerase ribozyme fitness (log ratio)": -1.24},
      {"variant": "C88G U116G", "polymerase ribozyme fitness (log ratio)": -3.52},
      {"variant": "A90C G128C", "polymerase ribozyme fitness (log ratio)": -3.68},
      {"variant": "C89G C102A C114A", "polymerase ribozyme fitness (log ratio)": -5.12},
      {"variant": "A91G C101U", "polymerase ribozyme fitness (log ratio)": -1.08},
      {"variant": "C89A U129C", "polymerase ribozyme fitness (log ratio)": -2.03},
      {"variant": "A91C C104A", "polymerase ribozyme fitness (log ratio)": -3.58},
      {"variant": "C89G G113C", "polymerase ribozyme fitness (log ratio)": -3.04},
      {"variant": "A90G C97U A105C U130A", "polymerase ribozyme fitness (log ratio)": -3.67},
      {"variant": "A95U U116G A118G", "polymerase ribozyme fitness (log ratio)": -2.78},
      {"variant": "A91U G93C G113C G135U", "polymerase ribozyme fitness (log ratio)": -3.6},
      {"variant": "C89U U133A", "polymerase ribozyme fitness (log ratio)": -0.271},
      {"variant": "A91U G113U", "polymerase ribozyme fitness (log ratio)": -3.5},
      {"variant": "G93C G117U", "polymerase ribozyme fitness (log ratio)": -2.87},
      {"variant": "A91G C115G", "polymerase ribozyme fitness (log ratio)": -4.4},
      {"variant": "U92A A121U", "polymerase ribozyme fitness (log ratio)": -0.332},
      {"variant": "U92A A121G", "polymerase ribozyme fitness (log ratio)": -0.696},
      {"variant": "C89U U96C", "polymerase ribozyme fitness (log ratio)": -0.473},
      {"variant": "C89U U96A", "polymerase ribozyme fitness (log ratio)": -1.3},
      {"variant": "C89U A90C", "polymerase ribozyme fitness (log ratio)": -0.815},
      {"variant": "C94A A121C G122U U129A", "polymerase ribozyme fitness (log ratio)": -2.35},
      {"variant": "U92A G113A U125C", "polymerase ribozyme fitness (log ratio)": -3.27},
      {"variant": "U92A G113U", "polymerase ribozyme fitness (log ratio)": -3.75},
      {"variant": "C88U C97A", "polymerase ribozyme fitness (log ratio)": -4.84},
      {"variant": "C94G C115A A121C", "polymerase ribozyme fitness (log ratio)": 0.289},
      {"variant": "C89U U112A", "polymerase ribozyme fitness (log ratio)": -0.432},
      {"variant": "C89A G135U", "polymerase ribozyme fitness (log ratio)": -2.26},
      {"variant": "G93U A100U", "polymerase ribozyme fitness (log ratio)": -1.72},
      {"variant": "A90U U92C U96C", "polymerase ribozyme fitness (log ratio)": -2.06},
      {"variant": "C94A G127U", "polymerase ribozyme fitness (log ratio)": -1.5},
      {"variant": "C88U U129A", "polymerase ribozyme fitness (log ratio)": -0.777},
      {"variant": "C94U U112A", "polymerase ribozyme fitness (log ratio)": 1.59},
      {"variant": "C89G C98U", "polymerase ribozyme fitness (log ratio)": -1.55},
      {"variant": "G93A U109A", "polymerase ribozyme fitness (log ratio)": -5.41},
      {"variant": "A91U U112G", "polymerase ribozyme fitness (log ratio)": -1.73},
      {"variant": "U92G G110A", "polymerase ribozyme fitness (log ratio)": -5.46},
      {"variant": "C88U A118G", "polymerase ribozyme fitness (log ratio)": 0.0785},
      {"variant": "C94A G117U U125A", "polymerase ribozyme fitness (log ratio)": -5.92},
      {"variant": "G93A G135U", "polymerase ribozyme fitness (log ratio)": -2.04},
      {"variant": "A95U U116G", "polymerase ribozyme fitness (log ratio)": -2},
      {"variant": "G93C G135A", "polymerase ribozyme fitness (log ratio)": -1.71},
      {"variant": "G93A A118G G135U", "polymerase ribozyme fitness (log ratio)": -1.11},
      {"variant": "C89G C115G G128A", "polymerase ribozyme fitness (log ratio)": -6.15},
      {"variant": "A90G A121C", "polymerase ribozyme fitness (log ratio)": 1.62}
    ]}
  ]
}
